In patent publication US5955420:
Each block holds one substance with its values, some of them ahead of it.

What was measured:
[1] = target: Rse.gD (human Rse receptor with a C-terminal HSV-1 glycoprotein D flag) on dp12.CHO cells (human) (UniProt Q06418)
[2] = target: Rse-IgG fusion protein (extracellular domain of human Rse followed by the Fc portion of human IgG) (human) (UniProt Q06418); assay: 125I-Rse-IgG binding to CMK11-5 membranes
[3] = target: Rse.gD (human Rse receptor with a C-terminal HSV-1 glycoprotein D flag) on dp12.CHO cells (human) (UniProt Q06418); remark: listed apart in the source
[4] = target: Rse-IgG fusion protein (extracellular domain of human Rse followed by the Fc portion of human IgG) (human) (UniProt Q06418); assay: 125I-Rse-IgG binding assay
[5] = target: recombinant human gas6 (human); assay: 125I-Rse-IgG and purified gas6, displaced by unlabeled Rse-IgG, barium chloride coprecipitation
[6] = target: Rse ligand (Rse-L) in fetal bovine serum, unpurified or Q-Sepharose enriched (bovine) (UniProt P07224); assay: Scatchard analysis, 125I-Rse-IgG displaced by unlabeled Rse-IgG on CMK11-5 membranes, 1% FBS
[7] = target: Rse ligand (Rse-L) in fetal bovine serum, unpurified or Q-Sepharose enriched (bovine) (UniProt P07224); assay: Scatchard analysis, 125I-Rse-IgG displaced by unlabeled Rse-IgG on CMK11-5 membranes, 10% FBS

KIRA assay, specific activity (KIRA units/mg P) [1]: 1170
Substance: recombinant human gas6 (ligand)

EC50 [2]: 1.2 nM
Substance: purified bovine protein S (Rse-L purified from fetal bovine serum) (from UniProt P07224) (ligand)

KIRA assay, EC50 for activation [3]: 0.4 nM
Substance: gD.gas6.279-C.IgG (from UniProt P01857-1) (Fc fusion)

EC50 [2]: > 250 nM | fold lower affinity than purified bovine protein S [4]: 200 fold
Substance: human protein S (ligand)

Kd [5]: 0.46 nM | Kd [6]: 0.82 nM | Kd [7]: 2.2 nM
Substance: Rse-IgG fusion protein (extracellular domain of human Rse followed by the Fc portion of human IgG) (from UniProt Q06418) (Fc fusion)

KIRA assay, specific activity (KIRA units/mg P) [1]: 3160
Substance: recombinant human gas6 lacking the gamma-carboxyl modification of glutamic acid (form 2) (ligand)
